The target of this data set is T1, MCPIP1 D141N (Regnase-1), full length (Homo sapiens, UniProt Q5D1E8 1-599, D141N).
T1 sequence: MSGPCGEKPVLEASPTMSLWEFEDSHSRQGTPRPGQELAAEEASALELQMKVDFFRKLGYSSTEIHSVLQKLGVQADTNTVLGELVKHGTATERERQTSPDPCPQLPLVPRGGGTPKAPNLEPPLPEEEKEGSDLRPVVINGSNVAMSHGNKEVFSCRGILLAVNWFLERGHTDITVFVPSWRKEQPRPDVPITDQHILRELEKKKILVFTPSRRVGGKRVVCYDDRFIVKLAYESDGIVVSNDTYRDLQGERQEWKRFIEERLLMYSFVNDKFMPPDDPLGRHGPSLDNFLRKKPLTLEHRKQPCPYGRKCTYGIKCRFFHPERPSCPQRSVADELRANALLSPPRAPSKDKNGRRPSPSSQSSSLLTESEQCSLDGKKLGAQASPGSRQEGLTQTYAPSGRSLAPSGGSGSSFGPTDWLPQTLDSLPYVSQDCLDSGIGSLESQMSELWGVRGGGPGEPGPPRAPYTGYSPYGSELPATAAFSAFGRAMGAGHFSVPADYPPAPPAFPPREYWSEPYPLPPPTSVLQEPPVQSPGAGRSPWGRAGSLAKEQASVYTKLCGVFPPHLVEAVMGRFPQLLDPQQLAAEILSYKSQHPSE
As to the kind of experiment: EMSA; apparent Kd, Hill analysis; 1% agarose, TBE; 25 mM Tris-HCl pH 7.9, 150 mM NaCl, 5% glycerol, 2.5 mM MgCl2, 1 mM DTT, 0.5 mM EDTA, 0.05 mM ZnCl2, 25 C; oligo 2 nM (full length) or 20 nM (PIN, PIN-ZF). As to conditions: protein: recombinant; tags: none stated (purified by ion exchange); chain copies: 2; label: 5' 6-FAM; hairpin. On the technique in general: Mobility shift assays separate free from complexed probe on a gel.

Turning to UGUUGUUCUCUACGAAGAACUGACA (structured_RNA) [mIL-6 82-106 5'FAM], the Kd was found to be 394 ± 45 nM.

The record behind these values is paper PMC5943514, “Substrate specificity of human MCPIP1 endoribonuclease” (Scientific Reports, 2018).
